The text below walks through data of PMC4649674, “Structural insights into HetR−PatS interaction involved in cyanobacterial pattern formation” (Scientific Reports, 2015).

One may read the Kd as the equilibrium constant for the complex coming apart.

Substitutions are numbered along the chain they refer to.

For one assay, the target named is T1, HetR mutant E253A (Nostoc sp., UniProt P27709, E253A).
T1 construct: 15 times (150 or 750 μM) to that of the full-length protein or 40 times (2 mM) to that of HetRHood; six-histidine tag (N); made in house; host or cells: Escherichia coli Rosetta (DE3)
T1 sequence (P27709 whole entry E253A): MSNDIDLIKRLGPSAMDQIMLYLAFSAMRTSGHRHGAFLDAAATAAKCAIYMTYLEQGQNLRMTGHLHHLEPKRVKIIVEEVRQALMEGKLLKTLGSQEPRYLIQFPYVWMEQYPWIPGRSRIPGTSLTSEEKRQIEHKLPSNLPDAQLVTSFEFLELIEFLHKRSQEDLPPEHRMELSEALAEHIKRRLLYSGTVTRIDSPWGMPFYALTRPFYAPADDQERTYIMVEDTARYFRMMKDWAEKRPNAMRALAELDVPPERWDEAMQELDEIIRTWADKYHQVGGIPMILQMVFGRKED
The assay is described as follows: ITC binding of PatS6 to HetR mutant E253A. The settings on record: 25 °C, 1 M NaCl, 5% (v/v) glycerol, 10 mM Tris-Cl, pH 7.8, protein 50 μM, PatS6 750 μM. The arrangement: species or system Anabaena sp. PCC 7120. As to the method:
(§1) The selenium-methionine-labeled HetR (SeMet HetR) was expressed in E. coli strain B834 (DE3) (Novagen, Madison). Transformed cells were first cultured in 2 × YT medium at 37 °C overnight, then harvested and washed twice with the M9 medium. Then the cells were cultured in SeMet medium (M9 medium with 50 mg/l SeMet and other essential amino acids at 50 mg/l) to an OD600 nm of approximately 1.0. The following steps in protein expression and purification were the same as those for the native protein. Site-directed mutagenesis was performed using the QuickChange site-directed mutagenesis kit (Stratagene, La Jolla) with the plasmid encoding the wild-type HetR as the template. The mutant protein was expressed, purified and stored in the same manner as the wild-type protein.
(§2) The related Kd values are
(§3) calculated and shown above the figures. ND stands for “not detectable”.

Assay [1] has as its target T2, HetR double mutant D270A/D278A (Nostoc sp., UniProt P27709, D270A/D278A).
T2 construct: 15 times (150 or 750 μM) to that of the full-length protein or 40 times (2 mM) to that of HetRHood; six-histidine tag (N); made in house; host or cells: Escherichia coli Rosetta (DE3)
The assay is described as follows: ITC binding of PatS6 to HetR double mutant D270A/D278A. On the set-up: species or system Anabaena sp. PCC 7120. The settings on record: 25 °C, 1 M NaCl, 5% (v/v) glycerol, 10 mM Tris-Cl, pH 7.8, protein 50 μM, PatS6 750 μM. The protocol:
as §1, §2, §3

Assay [2] has as its target PatS6 (Nostoc sp. PCC 7120). The following applies: cited from earlier work.
Assay [3] deals with PatS5 (Nostoc sp. PCC 7120). The settings on record: cited from earlier work.
Assay [4] concerns E253D mutant strain (hetR). On the set-up: method as in PMID 21942265. The following applies: in vivo; cited from earlier work.
The next assay relates to HetR. The following applies: cited from earlier work. From the text: Heterocyst pattern was first speculated to be controlled by a pentapeptide RGSGR (designated as PatS5), a motif which was identified first as the C-terminal five residues of PatS[16], and later within a putative ketoacyl reductase HetN[17].
In a further assay the target is T3, HetR R223W (Anabaena sp. PCC 7120, UniProt P27709 1-299, R223W).
T3 construct: HetR of Anabaena sp; PCC 7120, point mutant made from the plasmid of wild-type HetR; source: E. coli, purified in the same manner as the wild-type protein
T3 sequence (looked up): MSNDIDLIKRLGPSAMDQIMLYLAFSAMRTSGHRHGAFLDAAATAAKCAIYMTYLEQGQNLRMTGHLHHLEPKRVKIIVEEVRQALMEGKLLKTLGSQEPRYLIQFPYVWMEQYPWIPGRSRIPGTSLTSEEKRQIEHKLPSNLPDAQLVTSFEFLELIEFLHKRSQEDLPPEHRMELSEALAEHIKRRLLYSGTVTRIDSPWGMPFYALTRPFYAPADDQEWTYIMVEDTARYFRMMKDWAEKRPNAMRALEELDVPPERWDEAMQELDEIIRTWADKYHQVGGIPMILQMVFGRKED
The assay is described as follows: ITC; iTC200, 25 °C; protein in the sample cell (10 or 50 μM), PatS6 in the syringe (150 or 750 μM; 2 mM for HetR_(Hood)); 1 M NaCl, 5% (v/v) glycerol, 10 mM Tris-Cl, pH 7.8. The settings on record: both partners purified. A general note: Isothermal titration calorimetry measures the heat released or taken up as one component is titrated into another.

The target in another assay is T4, HetR D256A (Anabaena sp. PCC 7120, UniProt P27709 1-299, D256A).
T4 construct: HetR of Anabaena sp; PCC 7120, point mutant made from the plasmid of wild-type HetR; source: E. coli, purified in the same manner as the wild-type protein
T4 sequence (looked up): T3 sequence (looked up) with W223R, D256A
The description is as above. The settings on record: both partners purified.

In another assay the target is T5, HetR E254A (Anabaena sp. PCC 7120, UniProt P27709 1-299, E254A).
T5 construct: HetR of Anabaena sp; PCC 7120, point mutant made from the plasmid of wild-type HetR; source: E. coli, purified in the same manner as the wild-type protein
T5 sequence (looked up): T3 sequence (looked up) with W223R, E254A
The description is as above. The settings on record: both partners purified.

Another assay deals with T6, HetR D270A (Anabaena sp. PCC 7120, UniProt P27709 1-299, D270A).
T6 construct: HetR of Anabaena sp; PCC 7120, point mutant made from the plasmid of wild-type HetR; source: E. coli, purified in the same manner as the wild-type protein
T6 sequence (looked up): T3 sequence (looked up) with W223R, D270A
Described as above. The settings on record: both partners purified.

The target in assay [5] is T7, HetR (wild type, full-length) from Anabaena sp. PCC 7120 (Anabaena sp. PCC 7120, UniProt P27709 1-299).
T7 construct: HetR, transcription factor of Anabaena sp; PCC 7120; DBD 1-98, flap domain 99-216, hood domain 217-299; Intertwined homodimer in the crystal with 21-bp hetP promoter DNA; A SeMet-labelled form (E. coli B834) was used for phasing only; also called wild-type HetR; full-length HetR; source: E. coli Rosetta (DE3), purified (Ni-NTA, Superdex 75)
T7 sequence (looked up): T3 sequence (looked up) with W223R
The assay is described as above. The following applies: both partners purified.

The target of assay [6] is T8, HetR hood domain (Asp219-Asp299), HetR_(Hood) (Anabaena sp. PCC 7120, UniProt P27709 219-299).
T8 construct: HetR of Anabaena sp; PCC 7120, individual hood domain, residues Asp219-Asp299; Entwined dimer in the crystal; four molecules (two dimers) in the asymmetric unit; source: E. coli Rosetta (DE3), purified (Ni-NTA, Superdex 75)
T8 sequence (looked up): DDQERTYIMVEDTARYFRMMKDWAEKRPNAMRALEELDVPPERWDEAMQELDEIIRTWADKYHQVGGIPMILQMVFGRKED
The description is as above. The settings on record: both partners purified.

A further assay addresses T9, HetR D278A (Anabaena sp. PCC 7120, UniProt P27709 1-299, D278A).
T9 construct: HetR of Anabaena sp; PCC 7120, point mutant made from the plasmid of wild-type HetR; source: E. coli, purified in the same manner as the wild-type protein
T9 sequence (looked up): T3 sequence (looked up) with W223R, D278A
Described as above. The following applies: both partners purified.

T2 sequence (P27709 whole entry D270A/D278A): as the sequence (P27709 whole entry E253A) above, with A253E, D270A, D278A counted along it

`N=C(N)NCCC[C@H](NC(=O)CNC(=O)[C@H](CO)NC(=O)CNC(=O)[C@H](CCCNC(=N)N)NC(=O)[C@@H](N)CCC(=O)O)C(=O)O` [PatS6]: the “PatS6-binding affinity towards E253A” value at HetR mutant E253A is listed as “totally abolished the PatS6-binding affinity”. In assay [1], the “binding affinity towards D270A/D278A” value is reported as “no detectable binding affinity”.
For HetR (from UniProt P27709), the Kd was 7 nM in [2] and 227 nM in [3].
For the molecule “RGSGR [PatS5, pentapeptide RGSGR, C-terminal five residues of PatS]”, the “sensitivity of E253D mutant strain to PatS5” value in assay [4] is reported as “drastically reduced sensitivity to PatS5”. For the same molecule, in the assay on HetR, the “effect of PatS5 binding on DNA-binding capacity of HetR” value is “may abolish the DNA-binding capacity of HetR”. For the same molecule, the “molecules bound per HetR homodimer” value in the assay on HetR (in vitro binding assays) is listed as “two”.

B1: PatS6 (PatS-derived hexapeptide ERGSGR) (peptide)
peptide: ERGSGR
notes: PatS-derived hexapeptide; RGSGR is the C-terminal five residues of PatS of Anabaena sp; PCC 7120; source: synthetic peptide (GL Biochem, Shanghai)
On to B1, for which the dissociation constant (Kd) with HetR R223W amounted to 2350 nM; in the assay with HetR D256A, 427 nM; with HetR E254A, 91 nM; in the assay with HetR D270A it was 2250 nM; in assay [5] it was 12 nM; in assay [6], 24000 nM. The molecule also yielded a Kd in the assay with HetR D278A of 1630 nM.
